We go through 94 variants from the supplement of paper PMC10567573.

B1: PBXIP1 (parent)
chain: FGEDGIFRHDRLRFRDFVDALEDS
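Also: lentivirally expressed fusions sorted by FACS into six bins by GFP to DsRed ratio, PSI derived from sequencing read proportions per bin multiplied by bin number.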

This data set covers variants of B1. Briefly: protein stability index of a GFP-peptide fusion (GPS, HEK-293T) (PSI 1-6); higher = more stable. Conditions: c terminus: a fixed tail appended.
Take FGEDGIFRHARLRFRDFVDALEDS: the protein stability index amounted to 1.96.

Regarding FGEDGIFRHFRLRFRDFVDALEDS, the protein stability index is 2.16. The result for FGEDGIFRHERLRFRDFVDALEDS reads 2.63; that for FGEDGIFRHCRLRFRDFVDALEDS, 1.85. The figure for FGEDGIIRHDRLRFRDFVDALEDS is 3.51; for FGEDGIHRHDRLRFRDFVDALEDS it is 3.91. The result for FGEDGISRHDRLRFRDFVDALEDS reads 2.97; that for FGEDGIARHDRLRFRDFVDALEDS, 3.42; that for FGEDGIYRHDRLRFRDFVDALEDS, 2.98. For the variant FGEDGIPRHDRLRFRDFVDALEDS, the protein stability index came to 3.88. The figure for FGEDGIMRHDRLRFRDFVDALEDS is 4.07; for FGEDGIGRHDRLRFRDFVDALEDS it is 3.7.

In the case of FGEDGIRRHDRLRFRDFVDALEDS, the protein stability index was 2.84. For FGEDGIQRHDRLRFRDFVDALEDS, the protein stability index was determined as 3.36. The figure for FGEDGIERHDRLRFRDFVDALEDS is 4.84.

Turning to FGEDGIDRHDRLRFRDFVDALEDS, the protein stability index stood at 4.33. The result for FGEDGIVRHDRLRFRDFVDALEDS reads 3.72; that for FGEDGICRHDRLRFRDFVDALEDS, 2.95. The figure for FGEDGITRHDRLRFRDFVDALEDS is 2.71; for FGEDGIKRHDRLRFRDFVDALEDS it is 3.38. The figure for FGEDGIWRHDRLRFRDFVDALEDS is 1.95. On to FGEDGINRHDRLRFRDFVDALEDS, for which the protein stability index is 4.02.

For the variant FGEDGILRHDRLRFRDFVDALEDS, the protein stability index came to 3.13. The result for FGEDGEFRHDRLRFRDFVDALEDS reads 4.52; that for FGEDGRFRHDRLRFRDFVDALEDS, 3.72; that for FGEDGLFRHDRLRFRDFVDALEDS, 2.3. The result for FGEDGMFRHDRLRFRDFVDALEDS reads 1.97.

On to FGEDGYFRHDRLRFRDFVDALEDS, for which the protein stability index stood at 2.24. The figure for FGEDGQFRHDRLRFRDFVDALEDS is 3.86; for FGEDGNFRHDRLRFRDFVDALEDS it is 3.46; for FGEDGFFRHDRLRFRDFVDALEDS it is 1.33.

Regarding FGEDGAFRHDRLRFRDFVDALEDS, the protein stability index came to 2.23. The figure for FGEDGHFRHDRLRFRDFVDALEDS is 4.

On to FGEDGWFRHDRLRFRDFVDALEDS, for which the protein stability index was found to be 1.96.

On to FGEDGGFRHDRLRFRDFVDALEDS, for which the protein stability index came out at 3.65.

Take FGEDGVFRHDRLRFRDFVDALEDS: the protein stability index came out at 2.76.

For FGEDGKFRHDRLRFRDFVDALEDS, the protein stability index stood at 2.7. The figure for FGEDGTFRHDRLRFRDFVDALEDS is 2.95; for FGEDGSFRHDRLRFRDFVDALEDS it is 2.74. The result for FGEDGDFRHDRLRFRDFVDALEDS reads 4.38. The result for FGEDGPFRHDRLRFRDFVDALEDS reads 3.18; that for FGEDGCFRHDRLRFRDFVDALEDS, 2.33. As to FGEDIIFRHDRLRFRDFVDALEDS, the protein stability index came to 2.86.

With FGEDNIFRHDRLRFRDFVDALEDS, the protein stability index stood at 2.34. The figure for FGEDRIFRHDRLRFRDFVDALEDS is 3.02; for FGEDKIFRHDRLRFRDFVDALEDS it is 2.12; for FGEDVIFRHDRLRFRDFVDALEDS it is 3.19. In the case of FGEDQIFRHDRLRFRDFVDALEDS, the protein stability index turned out to be 3.23.

Regarding FGEDWIFRHDRLRFRDFVDALEDS, the protein stability index is 1.4. In the case of FGEDLIFRHDRLRFRDFVDALEDS, the protein stability index was found to be 2.54. The result for FGEDMIFRHDRLRFRDFVDALEDS reads 3.23. The result for FGEDPIFRHDRLRFRDFVDALEDS reads 3.37; that for FGEDTIFRHDRLRFRDFVDALEDS, 2.88. For the variant FGEDSIFRHDRLRFRDFVDALEDS, the protein stability index worked out at 1.95.

Regarding FGEDHIFRHDRLRFRDFVDALEDS, the protein stability index was 3.17.

For FGEDYIFRHDRLRFRDFVDALEDS, the protein stability index was 2.59. Turning to FGEDGIFMHDRLRFRDFVDALEDS, the protein stability index worked out at 3.06. The figure for FGEDGIFQHDRLRFRDFVDALEDS is 2.97. The figure for FGEDGIFWHDRLRFRDFVDALEDS is 2.05; for FGEDGIFPHDRLRFRDFVDALEDS it is 3.8.

For the variant FGEDGIFVHDRLRFRDFVDALEDS, the protein stability index amounted to 2.93. The figure for FGEDGIFEHDRLRFRDFVDALEDS is 4.23; for FGEDGIFAHDRLRFRDFVDALEDS it is 3.29; for FGEDGIFSHDRLRFRDFVDALEDS it is 2.85. The figure for FGEDGIFCHDRLRFRDFVDALEDS is 2.51; for FGEDGIFIHDRLRFRDFVDALEDS it is 3.09; for FGEDGIFDHDRLRFRDFVDALEDS it is 3.74. The result for FGEDGIFHHDRLRFRDFVDALEDS reads 2.65; that for FGEDGIFLHDRLRFRDFVDALEDS, 2.55; that for FGEDGIFNHDRLRFRDFVDALEDS, 3.16.

FGEDGIFGHDRLRFRDFVDALEDS: the protein stability index turned out to be 2.93. The result for FGEDGIFYHDRLRFRDFVDALEDS reads 2.46; that for FGEDGIFFHDRLRFRDFVDALEDS, 1.95; that for FGEDGIFTHDRLRFRDFVDALEDS, 2.48. For the variant FGEDGIFKHDRLRFRDFVDALEDS, the protein stability index is 2.23. As to FGEDGIFRSDRLRFRDFVDALEDS, the protein stability index came out at 2.79. In the case of FGEDGIFRCDRLRFRDFVDALEDS, the protein stability index is 2.47. With FGEDGIFRIDRLRFRDFVDALEDS, the protein stability index is 2.41. The figure for FGEDGIFRYDRLRFRDFVDALEDS is 2.46; for FGEDGIFRRDRLRFRDFVDALEDS it is 2.39.

FGEDGIFRVDRLRFRDFVDALEDS: the protein stability index is 2.82.

For the variant FGEDGIFRMDRLRFRDFVDALEDS, the protein stability index came to 2.73.

Consider FGEDGIFRDDRLRFRDFVDALEDS, for which the protein stability index amounted to 3.76. The result for FGEDGIFRQDRLRFRDFVDALEDS reads 2.42; that for FGEDGIFRPDRLRFRDFVDALEDS, 2.88.

For FGEDGIFRLDRLRFRDFVDALEDS, the protein stability index was 2.4.

As to FGEDGIFRTDRLRFRDFVDALEDS, the protein stability index worked out at 2.4. The figure for FGEDGIFRWDRLRFRDFVDALEDS is 2.04; for FGEDGIFRKDRLRFRDFVDALEDS it is 2.08. The figure for FGEDGIFREDRLRFRDFVDALEDS is 3.5; for FGEDGIFRNDRLRFRDFVDALEDS it is 3.28; for FGEDGIFRADRLRFRDFVDALEDS it is 2.84. For the variant FGEDGIFRGDRLRFRDFVDALEDS, the protein stability index is 3.19. Take FGEDGIFRFDRLRFRDFVDALEDS: the protein stability index was 2.26.
